Experimental data published in paper PMC10950897 (2024).

Target: His6-p97 WT (human, UniProt P55072 1-806)
Test: SPR

Sequence of His6-p97 WT (P55072 whole entry): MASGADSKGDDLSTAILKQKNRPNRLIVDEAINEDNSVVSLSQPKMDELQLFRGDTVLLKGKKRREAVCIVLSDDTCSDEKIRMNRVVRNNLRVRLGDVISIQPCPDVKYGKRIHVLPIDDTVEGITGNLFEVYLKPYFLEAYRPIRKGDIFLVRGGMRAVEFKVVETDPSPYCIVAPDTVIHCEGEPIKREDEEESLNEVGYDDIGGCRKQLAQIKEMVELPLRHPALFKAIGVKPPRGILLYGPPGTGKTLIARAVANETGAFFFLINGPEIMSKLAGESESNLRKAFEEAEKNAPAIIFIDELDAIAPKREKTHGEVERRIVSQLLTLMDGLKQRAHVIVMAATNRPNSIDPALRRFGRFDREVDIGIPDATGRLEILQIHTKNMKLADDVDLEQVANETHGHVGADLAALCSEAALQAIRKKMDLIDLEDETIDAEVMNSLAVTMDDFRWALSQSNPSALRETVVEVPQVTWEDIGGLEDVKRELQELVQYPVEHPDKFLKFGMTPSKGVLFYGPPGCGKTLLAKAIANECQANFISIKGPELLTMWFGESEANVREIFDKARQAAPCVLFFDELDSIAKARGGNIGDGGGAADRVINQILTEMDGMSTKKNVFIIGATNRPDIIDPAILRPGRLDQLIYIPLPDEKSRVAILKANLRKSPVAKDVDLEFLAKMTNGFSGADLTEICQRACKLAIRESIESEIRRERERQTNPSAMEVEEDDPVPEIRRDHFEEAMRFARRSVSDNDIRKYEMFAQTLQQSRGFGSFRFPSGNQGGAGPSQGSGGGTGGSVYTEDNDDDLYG

B1: Strep-HA-VCF1 WT (natural protein)
chain: not shown
In the case of B1, the Kd is reported as 10.9 nM.
